Data reported in paper doi:10.1101/2025.10.30.685657.
Read-outs that look alike come from different tables or passages of the source.

What was measured:
Assay in all cases: live-cell long-exposure single-molecule localization microscopy
[1] = target: T3SS injectisome of Yersinia enterocolitica (Yersinia enterocolitica (endogenous)) (UniProt Q01245)
[2] = target: T3SS injectisome of Yersinia enterocolitica (Yersinia enterocolitica (endogenous)) (UniProt Q01245); remark: listed apart in the source
[3] = target: T3SS injectisome of Yersinia enterocolitica (Yersinia enterocolitica (endogenous)) (UniProt Q01245); remark: listed apart in the source

| Substance | bound time constant tau (inverse of koff) [1] | short bound time constant tau (short component of the bi-exponential fit) [1] | weighted average bound time constant (short- and long-lived events) [1] | bound time constant tau (inverse of koff) [2] | short bound time constant tau (short component of the bi-exponential fit) [3] | weighted average bound time constant (short- and long-lived events) [3] | long bound time constant tau (long component of the bi-exponential fit) [1] |
| --- | --- | --- | --- | --- | --- | --- | --- |
| Halo-tagged SctL (from UniProt Q01253 1-223) (natural protein) | 3.4 s | 3.1 s | 4.4 s | 3.9 s | – | – | – |
| Halo-tagged SctQ (from UniProt Q79NI3 1-307) (natural protein) | 2.5 s | 4.5 s | – | 4.1 s | 2.1 s | 2.7 s | 23 s |
